Source: publication PMC6065357 (2018)

Biological target: T1, pro-brain-derived neurotrophic factor (proBDNF, residues 19-249, furin sites changed to AA) (UniProt P21237 19-249)
T1 chain: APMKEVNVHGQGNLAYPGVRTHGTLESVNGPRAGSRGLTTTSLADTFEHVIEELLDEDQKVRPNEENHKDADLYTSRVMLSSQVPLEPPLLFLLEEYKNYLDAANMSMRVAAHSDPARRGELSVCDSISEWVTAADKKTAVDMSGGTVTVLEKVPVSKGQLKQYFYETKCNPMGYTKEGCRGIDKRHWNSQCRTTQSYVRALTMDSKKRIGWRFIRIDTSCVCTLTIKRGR
Experiment: SPR; second site of two-site fit, possibly sSorCS2 oligomerization

Kd: ~30 µM
B1: mouse SorCS2 mature extracellular segment (sSorCS2, residues 117-1072) (receptor)
chain: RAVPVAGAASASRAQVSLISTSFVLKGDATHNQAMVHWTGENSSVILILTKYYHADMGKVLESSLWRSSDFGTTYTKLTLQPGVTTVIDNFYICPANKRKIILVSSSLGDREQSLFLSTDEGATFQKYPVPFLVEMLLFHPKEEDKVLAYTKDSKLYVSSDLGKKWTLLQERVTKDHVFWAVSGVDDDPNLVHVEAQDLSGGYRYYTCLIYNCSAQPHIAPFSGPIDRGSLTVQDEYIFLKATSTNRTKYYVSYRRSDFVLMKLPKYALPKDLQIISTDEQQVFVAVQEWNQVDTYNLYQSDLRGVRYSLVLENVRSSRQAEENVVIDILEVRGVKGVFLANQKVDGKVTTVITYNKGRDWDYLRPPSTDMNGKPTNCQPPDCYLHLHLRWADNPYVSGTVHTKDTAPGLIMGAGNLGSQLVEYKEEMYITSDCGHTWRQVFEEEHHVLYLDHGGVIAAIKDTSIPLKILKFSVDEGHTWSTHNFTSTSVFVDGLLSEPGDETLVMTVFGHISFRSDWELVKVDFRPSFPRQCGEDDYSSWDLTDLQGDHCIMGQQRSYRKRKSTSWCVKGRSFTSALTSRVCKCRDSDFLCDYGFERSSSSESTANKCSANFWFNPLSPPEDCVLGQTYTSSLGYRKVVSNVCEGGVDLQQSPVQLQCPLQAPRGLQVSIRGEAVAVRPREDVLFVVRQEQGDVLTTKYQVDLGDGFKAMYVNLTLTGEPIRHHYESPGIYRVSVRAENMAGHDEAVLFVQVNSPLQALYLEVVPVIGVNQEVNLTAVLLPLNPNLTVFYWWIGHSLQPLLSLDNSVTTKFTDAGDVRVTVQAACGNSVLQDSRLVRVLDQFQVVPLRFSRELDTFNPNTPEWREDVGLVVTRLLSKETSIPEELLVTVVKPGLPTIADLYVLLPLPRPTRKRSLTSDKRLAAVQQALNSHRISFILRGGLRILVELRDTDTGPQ
